US5962246A

Substrate: O=c1ccn([C@H]2C[C@H](O)[C@@H](COP(=O)(O)OP(=O)(O)OP(=O)(O)O)O2)c(=O)[nH]1
Assay: purified protein, by the assay type
Details: other: substrate dUTP, 20 mM Tris-HCl pH 7.5, 37° C., purified recombinant DUT-N

B1: recombinant human dUTPase nuclear isoform DUT-N (Seq. ID No. 2), expressed in baculovirus/Sf21 insect cells (Homo sapiens) (protein)
chain: MPCSEETPAISPSKRARPAEVGGMQLRFARLSEHATAPTRGSARAAGYDLYSAYDYTIPPMEKAVVKTDIQIALPSGCYGRVAPRSGLAAKHFIDVGAGVIDEDYRGNVGVVLFNFGKEKFEVKKGDRIAQLICERIFYPEIEEVQALDDTERGSGGFGSTGKN
B1 gave a Km of 2.5 µM.
